Laboratory results from publication PMC3665681.

Biological target: A3B3 of Thermus thermophilus VoV1 (His-tagged A3B3, expressed without a rotor subunit) (T. thermophilus) (UniProt Q56403)
Sequence of UniProt Q56403 (Q56403 whole entry C28S/S232A/T235S/C255A, chain 1 of 2): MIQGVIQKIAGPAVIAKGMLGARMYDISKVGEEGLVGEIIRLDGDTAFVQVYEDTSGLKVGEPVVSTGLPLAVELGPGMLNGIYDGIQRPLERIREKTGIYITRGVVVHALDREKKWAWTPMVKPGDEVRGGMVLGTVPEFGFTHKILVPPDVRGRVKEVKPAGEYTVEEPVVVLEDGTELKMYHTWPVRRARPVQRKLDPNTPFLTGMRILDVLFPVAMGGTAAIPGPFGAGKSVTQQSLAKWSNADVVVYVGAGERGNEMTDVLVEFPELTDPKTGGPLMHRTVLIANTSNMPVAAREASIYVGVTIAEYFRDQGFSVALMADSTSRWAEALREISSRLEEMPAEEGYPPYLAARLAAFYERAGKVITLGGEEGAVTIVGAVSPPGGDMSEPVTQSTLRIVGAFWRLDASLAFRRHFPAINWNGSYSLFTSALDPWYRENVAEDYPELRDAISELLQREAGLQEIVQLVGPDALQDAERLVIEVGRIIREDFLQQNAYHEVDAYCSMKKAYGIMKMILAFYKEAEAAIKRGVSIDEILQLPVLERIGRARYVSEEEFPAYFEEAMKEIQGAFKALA
Sequence of UniProt Q56403 (Q56404 whole entry C264S, chain 2 of 2, further chain): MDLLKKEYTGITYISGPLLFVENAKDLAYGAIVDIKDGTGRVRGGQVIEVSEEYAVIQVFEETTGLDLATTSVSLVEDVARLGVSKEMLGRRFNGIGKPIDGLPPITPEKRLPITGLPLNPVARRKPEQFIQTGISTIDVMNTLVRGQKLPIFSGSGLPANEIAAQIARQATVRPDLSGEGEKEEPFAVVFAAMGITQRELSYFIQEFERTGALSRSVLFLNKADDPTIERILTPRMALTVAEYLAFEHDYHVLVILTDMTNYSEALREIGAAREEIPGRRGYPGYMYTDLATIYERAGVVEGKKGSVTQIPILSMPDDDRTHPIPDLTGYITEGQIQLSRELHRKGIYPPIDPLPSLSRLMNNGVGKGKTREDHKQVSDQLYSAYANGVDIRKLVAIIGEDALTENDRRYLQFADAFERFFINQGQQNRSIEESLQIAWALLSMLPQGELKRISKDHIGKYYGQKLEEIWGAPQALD

FliJ of Salmonella enterica serovar Typhimurium (from UniProt P0A1K1 1-147) (natural protein)
ATPase turnover rate of A3B3J (A3B3 alone ∼4.0 s^−1); 25°C, 4 mM MgATP: 7 s⁻¹
